Results reported in the supplement of paper PMC12042874.
± gives the uncertainty stated by the source.

Test: amyloid nucleation score (Sup35N fusion, yeast selection) (log enrichment); library NNK2; higher = more nucleation; inactive = no reads after selection
In short: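 For the nucleation score, DiMSum gave the log enrichment of output over input reads, centred on the mode score of non-aggregating sequences. Psi-negative yeast expressing Sup35N fused to peptides of 20 random codons were induced with 100 μM copper sulfate for 24 hours and grown 7 days at 30°C on medium lacking adenine and uracil. Input and output plasmid inserts were Illumina-sequenced, and sequences with under 100 input reads were excluded.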

Substance	amyloid nucleation score
YLDRGYRGGFPFGKNVWTDG	-1.36 ± 0.78
WGCHRLEATVLLCVRVCIDC	-0.263 ± 1.1
SIEYRDLKVCSLLYPVPQSG	0.127 ± 0.46
LRAHFWGDD	0.335 ± 0.31
KGVCWVTICELHDW	-0.305 ± 0.48
LSPRNPYAFVSAISDRIM	-0.97 ± 0.63
DIRCDLGRVFN	-0.17 ± 0.79
WLQAHGIVYLNICRNSGFVH	5.12 ± 0.058
ATYFWMQSVP	0.903 ± 0.74
FFCPRGRAFLSSRM	-0.788 ± 0.79
LASNFGFHGLAADMDALWCY	-1.23 ± 0.78
GNLWGYECVYINKQICGSSR	3.49 ± 0.05
NVYLTQSWSFHNLHRFYYST	2.57 ± 0.083
FIVYKVPFRV	-0.934 ± 0.78
QSHTYRL	1.55 ± 0.25
RLECRLNSEPFYKDWTSSDS	0.674 ± 0.39
LFRGRMPFPRDSEYLRNRWK	-0.287 ± 0.28
CSKRSQTKVITHICARGEVS	0.827 ± 0.28
RCQLRALRCPFMSTVLRCSY	0.803 ± 0.28
VIVSMVSE	inactive
YWQYCVDANFKQLMQRGKVF	0.728 ± 0.62
VGTGLIIA	1.18 ± 0.47

Substance	amyloid nucleation score
LHCLRDIIKRNKDSFPQMWG	-0.607 ± 0.33
RFFHGYFCGIRCRCQAVCQL	inactive
DKGWLANDNLDKDLHQIPYA	0.515 ± 0.35
LLYTCFGVREVQMVTYRNAS	4 ± 0.063
SGLSAVGSLGVNIEISSFVR	-0.983 ± 0.78
LYLTWCKTLSDNLAL	-1.15 ± 0.76
SKMSYAYFLSLTMRCVADSM	3.35 ± 0.06
LTTLKFRFFLIIKRSSAGCC	0.461 ± 0.8
WAQSNISETSYHVGSLLSVA	0.016 ± 0.32
TGGRF	0.264 ± 0.8
ATTYAYTGAQLTWFRWMVVQ	0.832 ± 0.31
CISMDLIVLNSFMGKPLPPP	5.39 ± 0.057
DSIGVVFEVKTGKARASGVV	0.171 ± 0.49
VLGVLQFVAFWNVVMWISPL	-0.659 ± 0.76
NVIGENLGGLLNIFDTNVSF	inactive
PTCMLCA	0.868 ± 0.44
ANFCVDCIDIAH	0.787 ± 0.45
QPILSNLLNHLYTNILSSTL	-0.936 ± 0.64
YSKTFTRRSWAHYTCHSVRL	0.12 ± 0.41
CTPDLLSVNFDVVVLQW	-0.58 ± 0.55
VLFVTVPLSMVIMVSQT	-0.277 ± 1
LSKSVLKNTWGVYVI	-0.358 ± 0.79

Substance	amyloid nucleation score
LMSSLFPLSSACY	-0.545 ± 0.38
ISKEMGNYNFGLSKYAKR	-1.06 ± 0.3
PLDLYSVSIISLFEYIGVVR	-0.948 ± 1
LLMFAMYIQIRLLSTATYIV	-0.564 ± 0.79
ALNAG	1.11 ± 0.2
GNSGYPTV	1.02 ± 0.24
CFQSRYLTRSGLKVWHTKGD	0.631 ± 0.37
HRVCLNTIGY	-1.02 ± 0.32
FYHLLLTFGKIVVVQAAWSM	0.981 ± 0.51
SMIIARILHITCFYRAHRRV	-0.721 ± 0.64
STVGEVYVGLALMDVWGMEW	0.559 ± 0.32
LQKDYTSMH	inactive
NTWEWLLPEMSNLLSWFSEW	0.014 ± 0.27
RSKVYTWR	3.23 ± 0.071
CYNALWLFGNHAKTAHGLGH	0.709 ± 0.48
FSGTF	-1.07 ± 0.76
LTRGTFRIQCTLTSAWRVAR	4.62 ± 0.11
NGCYQGYKCVLRQLAFKSSG	-0.17 ± 0.5
YWLPRCKLVFV	0.017 ± 0.25
DTTALHRVTASTLGHRFSLG	0.58 ± 0.56
VPYSICSKSSRESCRYVWYG	3.79 ± 0.053
AIFGFTVVLVMFMRFLQDTC	0.732 ± 0.22

Substance	amyloid nucleation score
NEIASEYSYRPLLRGWSS	-0.119 ± 0.4
LLLKPMFRVIILMYARVCMY	-1.08 ± 1.1
CLCGTFVSVSPIGYRGQWGG	-0.467 ± 0.76
LLTGQALFGRASY	0.122 ± 0.37
LTAWIC	0.285 ± 1
EQMGCTGLVFNVCEGFEDVM	3.44 ± 0.059
FFHKDPLLQNRIVLHMQVPA	inactive
KGWNMHSPMRALQHAETVGT	0.859 ± 0.3
RHSKFRVITENMIDPFQRS	0.249 ± 0.64
SLKITSYSVCVCCLCMNCNT	7.6 ± 0.052
CSIMFIG	0.858 ± 0.47
PVSALAVFRCLMYSCFCGDL	6.172 ± 0.035
TGTAVG	3.23 ± 0.073
LRVWVTAFFFSVMMCEQMFQ	inactive
FIFVSNKYTNGIFAILGT	1.98 ± 0.13
KRFGNFMTLRTLRVT	1.42 ± 0.14
EMLKHCYTSTQSSYSFIYWR	-0.27 ± 0.65
MMSLPTLQSW	inactive
MDVES	-0.192 ± 0.45
SGCLQRFSQSLGRTCFIWLG	-1.29 ± 0.75
